Assay results taken from the Immune Epitope Database (IEDB).

How the values were obtained:
HLA-A*02:03 [1] = test: IEDB peptide-MHC binding, purified MHC/direct/fluorescence; filed as Kd, often an IC50 or EC50 that approximates it; ≥ and ≤ were set here for values at or beyond the usual limits of such assays
HLA-A*02:12 = test: as above
HLA-A*02:16 = test: as above
HLA-A*02:19 = test: as above
HLA-A*29:02 = test: as above
HLA-A*68:02 [2] = test: as above
HLA-A*03:01 [3] = test: IEDB peptide-MHC binding, purified MHC/competitive/fluorescence; filed as Kd, often an IC50 or EC50 that approximates it; ≥ and ≤ were set here for values at or beyond the usual limits of such assays; details: source organism: Orthohantavirus sinnombreense
HLA-A*26:01 [4] = test: as above
HLA-A*31:01 = test: as above; details: source organism: Orthohantavirus sinnombreense
HLA-A*69:01 = test: as above
HLA-B*15:01 [5] = test: as above
HLA-B*18:01 = test: as above
HLA-B*39:01 = test: as above
HLA-B*46:01 = test: as above
HLA-B*51:01 = test: as above
HLA-A*03:01 [6] = test: IEDB peptide-MHC binding, purified MHC/competitive/fluorescence; ≥ and ≤ were set here for values at or beyond the usual limits of such assays
HLA-A*11:01 = test: as above
HLA-B*07:02 = test: as above
HLA-B*15:01 [7] = test: as above
HLA-A*02:11 = test: IEDB peptide-MHC binding, purified MHC/direct/fluorescence; filed as Kd, often an IC50 or EC50 that approximates it; ≥ and ≤ were set here for values at or beyond the usual limits of such assays
HLA-A*03:01 [8] = test: as above
HLA-A*26:01 [9] = test: as above; details: source organism: Orthohantavirus andesense
HLA-B*15:01 [10] = test: as above; details: source organism: Orthohantavirus andesense
HLA-A*02:01 [11] = test: IEDB peptide-MHC binding, purified MHC/competitive/fluorescence; filed as Kd, often an IC50 or EC50 that approximates it; ≥ and ≤ were set here for values at or beyond the usual limits of such assays
HLA-B*27:03 = test: as above
HLA-B*57:01 = test: as above
HLA-A*02:01 [12] = test: IEDB peptide-MHC binding, purified MHC/direct/fluorescence; filed as Kd, often an IC50 or EC50 that approximates it; ≥ and ≤ were set here for values at or beyond the usual limits of such assays; details: source organism: Sudan ebolavirus - Maleo (1979)
HLA-A*23:01 = test: as above
HLA-A*24:03 = test: as above
HLA-B*15:17 = test: IEDB peptide-MHC binding, purified MHC/competitive/fluorescence; filed as Kd, often an IC50 or EC50 that approximates it; ≥ and ≤ were set here for values at or beyond the usual limits of such assays
HLA-A*02:03 [13] = test: as above; details: source organism: Human immunodeficiency virus 1
HLA-A*68:02 [14] = test: as above; details: source organism: Human immunodeficiency virus 1
HLA-B*40:01 = test: IEDB peptide-MHC binding, purified MHC/direct/fluorescence; filed as Kd, often an IC50 or EC50 that approximates it; ≥ and ≤ were set here for values at or beyond the usual limits of such assays; details: source organism: Sudan ebolavirus - Uganda (2000)
HLA-A*02:01 [15] = test: IEDB peptide-MHC binding, purified MHC/competitive/fluorescence; ≥ and ≤ were set here for values at or beyond the usual limits of such assays
HLA-B*08:01 = test: IEDB peptide-MHC binding, purified MHC/direct/fluorescence; filed as Kd, often an IC50 or EC50 that approximates it; ≥ and ≤ were set here for values at or beyond the usual limits of such assays; details: source organism: Rio Mamore hantavirus
HLA-A*01:01 = test: as above; details: source organism: Reston ebolavirus - Reston
HLA-A*26:02 = test: IEDB peptide-MHC binding, purified MHC/competitive/fluorescence; filed as Kd, often an IC50 or EC50 that approximates it; ≥ and ≤ were set here for values at or beyond the usual limits of such assays; details: source organism: Human immunodeficiency virus 1
HLA-A*24:02 = test: IEDB peptide-MHC binding, purified MHC/competitive/fluorescence; ≥ and ≤ were set here for values at or beyond the usual limits of such assays
[16] = source organism: Limestone Canyon virus
[17] = source organism: Orthohantavirus sinnombreense
[18] = source organism: Zaire ebolavirus
[19] = source organism: Pergamino virus
[20] = source organism: Lechiguanas virus
[21] = source organism: Reston ebolavirus
[22] = source organism: Human immunodeficiency virus 1
[23] = source organism: Sudan ebolavirus
[24] = source organism: Vaccinia virus

RTLGVFRYK
Kd (HLA-A*02:03 [1]; [16]): ≥ 20 µM | Kd (HLA-A*02:12; [16]): ≥ 20 µM | Kd (HLA-A*02:16; [16]): ≥ 20 µM | Kd (HLA-A*02:19; [16]): ≥ 20 µM | Kd (HLA-A*29:02; [16]): ≥ 20 µM | Kd (HLA-A*68:02 [2]; [16]): ≥ 20 µM | Kd (HLA-A*03:01 [3]): 0.109 µM | Kd (HLA-A*26:01 [4]; [17]): ≥ 20 µM | Kd (HLA-A*31:01): 0.0062 µM | Kd (HLA-A*69:01; [17]): ≥ 20 µM | Kd (HLA-B*15:01 [5]; [17]): ≥ 20 µM | Kd (HLA-B*18:01; [17]): ≥ 20 µM | Kd (HLA-B*39:01; [17]): ≥ 20 µM | Kd (HLA-B*46:01; [17]): ≥ 20 µM | Kd (HLA-B*51:01; [17]): ≥ 20 µM

TLRKERLAK
IC50 (HLA-A*03:01 [6]; [18]): 0.509 µM | IC50 (HLA-A*11:01; [18]): 4.25 µM | IC50 (HLA-B*07:02; [18]): ≥ 119 µM | IC50 (HLA-B*15:01 [7]; [18]): ≥ 171 µM

SCINGQCPY
Kd (HLA-A*02:03 [1]; [19]): ≥ 20 µM | Kd (HLA-A*02:11; [19]): ≥ 20 µM | Kd (HLA-A*02:12; [19]): ≥ 20 µM | Kd (HLA-A*02:16; [19]): ≥ 20 µM | Kd (HLA-A*02:19; [19]): ≥ 20 µM | Kd (HLA-A*03:01 [8]; [19]): ≥ 20 µM | Kd (HLA-A*26:01 [9]): 2.22 µM | Kd (HLA-A*68:02 [2]; [19]): ≥ 20 µM | Kd (HLA-B*15:01 [10]): 6 µM | Kd (HLA-A*02:01 [11]; [20]): ≥ 20 µM | Kd (HLA-A*69:01; [20]): ≥ 20 µM | Kd (HLA-B*18:01; [20]): ≥ 20 µM | Kd (HLA-B*27:03; [20]): ≥ 20 µM | Kd (HLA-B*39:01; [20]): ≥ 20 µM | Kd (HLA-B*46:01; [20]): ≥ 20 µM | Kd (HLA-B*51:01; [20]): ≥ 20 µM | Kd (HLA-B*57:01; [20]): ≥ 20 µM

TPSATTAAG
IC50 (HLA-B*07:02; [18]): ≥ 144 µM

SMHYKLDEV
Kd (HLA-A*02:01 [12]): 0.0151 µM | Kd (HLA-A*03:01 [8]; [18]): ≥ 20 µM | Kd (HLA-A*23:01; [18]): ≥ 20 µM | Kd (HLA-A*24:03; [18]): ≥ 20 µM | Kd (HLA-A*29:02; [18]): ≥ 20 µM | Kd (HLA-A*26:01 [4]; [18]): ≥ 20 µM | Kd (HLA-A*69:01; [18]): ≥ 20 µM | Kd (HLA-B*15:01 [5]; [18]): ≥ 20 µM | Kd (HLA-B*15:17; [18]): ≥ 20 µM | Kd (HLA-B*18:01; [18]): ≥ 20 µM | Kd (HLA-B*27:03; [18]): ≥ 20 µM | Kd (HLA-B*39:01; [18]): ≥ 20 µM | Kd (HLA-B*46:01; [18]): ≥ 20 µM | Kd (HLA-B*51:01; [18]): ≥ 20 µM | Kd (HLA-B*57:01; [18]): ≥ 20 µM

EELKSLFNTI
Kd (HLA-A*02:03 [13]): 1.54 µM | Kd (HLA-A*68:02 [14]): 1.18 µM

LESLTDREL
Kd (HLA-A*02:03 [1]; [18]): ≥ 20 µM | Kd (HLA-A*02:11; [18]): ≥ 20 µM | Kd (HLA-A*02:12; [18]): ≥ 20 µM | Kd (HLA-A*02:16; [18]): ≥ 20 µM | Kd (HLA-A*02:19; [18]): ≥ 20 µM | Kd (HLA-A*03:01 [8]; [18]): ≥ 20 µM | Kd (HLA-A*24:03; [18]): ≥ 20 µM | Kd (HLA-A*68:02 [2]; [18]): ≥ 20 µM | Kd (HLA-B*40:01): 0.118 µM | Kd (HLA-A*02:01 [11]; [18]): ≥ 20 µM | Kd (HLA-A*26:01 [4]; [18]): ≥ 20 µM | Kd (HLA-A*69:01; [18]): ≥ 20 µM | Kd (HLA-B*15:01 [5]; [18]): ≥ 20 µM | Kd (HLA-B*15:17; [18]): ≥ 20 µM | Kd (HLA-B*18:01; [18]): ≥ 20 µM | Kd (HLA-B*27:03; [18]): ≥ 20 µM | Kd (HLA-B*39:01; [18]): ≥ 20 µM | Kd (HLA-B*46:01; [18]): ≥ 20 µM | Kd (HLA-B*51:01; [18]): ≥ 20 µM | Kd (HLA-B*57:01; [18]): ≥ 20 µM

TGFGTNETE
IC50 (HLA-B*07:02; [18]): ≥ 221 µM

FIHIPGDTL
IC50 (HLA-A*02:01 [15]; source organism: Variola virus): 2.55 µM | IC50 (HLA-B*07:02; source organism: Variola virus): 47 µM | IC50 (HLA-B*15:01 [7]; source organism: Variola virus): ≥ 80.7 µM

KLKSVGKAY
Kd (HLA-A*02:03 [1]; [16]): ≥ 20 µM | Kd (HLA-A*02:11; [16]): ≥ 20 µM | Kd (HLA-A*02:12; [16]): ≥ 20 µM | Kd (HLA-A*02:16; [16]): ≥ 20 µM | Kd (HLA-A*02:19; [16]): ≥ 20 µM | Kd (HLA-A*03:01 [8]; source organism: Rio Mamore hantavirus): 0.536 µM | Kd (HLA-A*24:03; [16]): ≥ 20 µM | Kd (HLA-A*29:02; [16]): ≥ 20 µM | Kd (HLA-A*68:02 [2]; [16]): ≥ 20 µM | Kd (HLA-B*08:01): ≥ 20 µM | Kd (HLA-A*02:01 [11]; [20]): ≥ 20 µM | Kd (HLA-A*26:01 [4]; [20]): ≥ 20 µM | Kd (HLA-A*69:01; [20]): ≥ 20 µM | Kd (HLA-B*18:01; [20]): ≥ 20 µM | Kd (HLA-B*27:03; [20]): ≥ 20 µM | Kd (HLA-B*39:01; [20]): ≥ 20 µM | Kd (HLA-B*51:01; [20]): ≥ 20 µM | Kd (HLA-B*57:01; [20]): ≥ 20 µM

TTDDSTSYY
Kd (HLA-A*01:01): 0.0122 µM | Kd (HLA-A*02:03 [1]; [21]): ≥ 20 µM | Kd (HLA-A*02:11; [21]): ≥ 20 µM | Kd (HLA-A*02:12; [21]): ≥ 20 µM | Kd (HLA-A*02:16; [21]): ≥ 20 µM | Kd (HLA-A*02:19; [21]): ≥ 20 µM | Kd (HLA-A*03:01 [8]; [21]): ≥ 20 µM | Kd (HLA-A*23:01; [21]): ≥ 20 µM | Kd (HLA-A*24:03; [21]): ≥ 20 µM | Kd (HLA-A*68:02 [2]; [21]): ≥ 20 µM | Kd (HLA-A*02:01 [11]; [21]): ≥ 20 µM | Kd (HLA-A*26:01 [4]; [21]): ≥ 20 µM | Kd (HLA-A*69:01; [21]): ≥ 20 µM | Kd (HLA-B*15:01 [5]; [21]): ≥ 20 µM | Kd (HLA-B*15:17; [21]): ≥ 20 µM | Kd (HLA-B*18:01; [21]): ≥ 20 µM | Kd (HLA-B*27:03; [21]): ≥ 20 µM | Kd (HLA-B*39:01; [21]): ≥ 20 µM | Kd (HLA-B*46:01; [21]): ≥ 20 µM | Kd (HLA-B*51:01; [21]): ≥ 20 µM | Kd (HLA-B*57:01; [21]): ≥ 20 µM

DIKDTKEAL
Kd (HLA-A*02:01 [11]; [22]): ≥ 20 µM | Kd (HLA-A*26:02): ≥ 20 µM | Kd (HLA-A*68:02 [14]): 1.7 µM | Kd (HLA-B*39:01; [22]): ≥ 20 µM

TSPRMLTPI
IC50 (HLA-A*02:01 [15]; [18]): ≥ 684 µM | IC50 (HLA-A*24:02; [18]): 3.05 µM | IC50 (HLA-B*07:02; [18]): ≥ 260 µM

RPHTPQFLF
IC50 (HLA-A*24:02; [23]): 1.03 µM | IC50 (HLA-B*07:02; [23]): 1.46 µM

YIKNIGNTK
IC50 (HLA-A*03:01 [6]; [24]): 6.51 µM | IC50 (HLA-A*11:01; [24]): 30.5 µM | IC50 (HLA-B*07:02; [24]): ≥ 745 µM
